Test results taken from US12467929.
Values belong to the substance of their own block, whether it stands above or below them.

Legend:
[1] = target: recombinant UBE3A protein (Homo sapiens (Human)) (UniProt Q05086); assay: 2-step Simoa; capture Novus; UBE3A 0.01 ng/ml
[2] = target: recombinant UBE3A protein (Homo sapiens (Human)) (UniProt Q05086); assay: 2-step Simoa; capture Novus; UBE3A 0.1 ng/ml
[3] = target: recombinant UBE3A protein (Homo sapiens (Human)) (UniProt Q05086); assay: 2-step Simoa; capture MS 2F6; UBE3A 1 ng/ml
[4] = target: recombinant UBE3A protein (Homo sapiens (Human)) (UniProt Q05086); assay: 2-step Simoa; capture GTX; UBE3A 1 ng/ml
[5] = target: recombinant UBE3A protein (Homo sapiens (Human)) (UniProt Q05086); assay: 2-step Simoa; capture GTX; UBE3A 0.01 ng/ml
[6] = target: recombinant UBE3A protein (Homo sapiens (Human)) (UniProt Q05086); assay: 3-step Simoa; capture GTX; UBE3A 0.01 ng/ml
[7] = target: recombinant UBE3A protein (Homo sapiens (Human)) (UniProt Q05086); assay: 3-step Simoa; capture Novus; UBE3A 1 ng/ml
[8] = target: recombinant UBE3A protein (Homo sapiens (Human)) (UniProt Q05086); assay: 3-step Simoa; capture GTX; UBE3A 0.1 ng/ml
[9] = target: recombinant UBE3A protein (Homo sapiens (Human)) (UniProt Q05086); assay: 3-step Simoa; capture Novus; UBE3A 10 ng/ml
[10] = target: recombinant UBE3A protein (Homo sapiens (Human)) (UniProt Q05086); assay: 2-step Simoa; capture MS 2F6; UBE3A 0.01 ng/ml
[11] = target: recombinant UBE3A protein (Homo sapiens (Human)) (UniProt Q05086); assay: 2-step Simoa; capture Novus; UBE3A 10 ng/ml
[12] = target: recombinant UBE3A protein (Homo sapiens (Human)) (UniProt Q05086); assay: 3-step Simoa; capture Novus; UBE3A 0.01 ng/ml
[13] = target: recombinant UBE3A protein (Homo sapiens (Human)) (UniProt Q05086); assay: 3-step Simoa; capture Novus; UBE3A 0.1 ng/ml
[14] = target: recombinant UBE3A protein (Homo sapiens (Human)) (UniProt Q05086); assay: 3-step Simoa; capture GTX; UBE3A 1 ng/ml
[15] = target: recombinant UBE3A protein (Homo sapiens (Human)) (UniProt Q05086); assay: 3-step Simoa; capture GTX; UBE3A 10 ng/ml
[16] = target: recombinant UBE3A protein (Homo sapiens (Human)) (UniProt Q05086); assay: 2-step Simoa; capture GTX; UBE3A 10 ng/ml
[17] = target: recombinant UBE3A protein (Homo sapiens (Human)) (UniProt Q05086); assay: 3-step Simoa; capture MS 2F6; UBE3A 1 ng/ml
[18] = target: recombinant UBE3A protein (Homo sapiens (Human)) (UniProt Q05086); assay: 3-step Simoa; capture MS 2F6; UBE3A 0.1 ng/ml
[19] = target: recombinant UBE3A protein (Homo sapiens (Human)) (UniProt Q05086); assay: 3-step Simoa; capture MS 2F6; UBE3A 10 ng/ml
[20] = target: recombinant UBE3A protein (Homo sapiens (Human)) (UniProt Q05086); assay: 2-step Simoa; capture MS 2F6; UBE3A 0.1 ng/ml
[21] = target: recombinant UBE3A protein (Homo sapiens (Human)) (UniProt Q05086); assay: 2-step Simoa; capture Novus; UBE3A 1 ng/ml
[22] = target: recombinant UBE3A protein (Homo sapiens (Human)) (UniProt Q05086); assay: 2-step Simoa; capture MS 2F6; UBE3A 10 ng/ml
[23] = target: recombinant UBE3A protein (Homo sapiens (Human)) (UniProt Q05086); assay: 2-step Simoa; capture MS 3E5; UBE3A 0.1 ng/ml

Chain of UniProt Q05086 (Q05086 whole entry): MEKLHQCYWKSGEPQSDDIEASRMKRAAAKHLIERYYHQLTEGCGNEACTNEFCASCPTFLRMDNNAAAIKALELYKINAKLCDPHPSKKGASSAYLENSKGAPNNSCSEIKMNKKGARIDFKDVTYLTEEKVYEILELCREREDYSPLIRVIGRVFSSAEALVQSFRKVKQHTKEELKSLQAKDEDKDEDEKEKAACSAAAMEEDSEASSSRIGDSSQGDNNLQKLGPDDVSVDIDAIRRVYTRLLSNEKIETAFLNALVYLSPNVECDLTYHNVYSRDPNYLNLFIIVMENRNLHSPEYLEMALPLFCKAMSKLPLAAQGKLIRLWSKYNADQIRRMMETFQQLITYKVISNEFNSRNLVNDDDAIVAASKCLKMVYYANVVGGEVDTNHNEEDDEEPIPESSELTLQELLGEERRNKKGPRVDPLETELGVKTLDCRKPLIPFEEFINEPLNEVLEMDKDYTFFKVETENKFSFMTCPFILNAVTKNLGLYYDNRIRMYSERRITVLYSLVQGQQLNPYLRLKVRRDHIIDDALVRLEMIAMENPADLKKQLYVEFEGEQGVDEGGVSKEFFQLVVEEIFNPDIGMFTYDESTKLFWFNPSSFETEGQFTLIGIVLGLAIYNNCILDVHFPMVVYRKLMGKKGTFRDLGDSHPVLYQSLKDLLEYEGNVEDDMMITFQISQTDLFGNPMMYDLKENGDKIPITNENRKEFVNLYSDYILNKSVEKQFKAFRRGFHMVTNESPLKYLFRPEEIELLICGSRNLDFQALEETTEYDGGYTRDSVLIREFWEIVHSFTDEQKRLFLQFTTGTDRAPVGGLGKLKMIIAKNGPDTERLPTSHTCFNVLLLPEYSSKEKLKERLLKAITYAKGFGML

- AEB1 [1]: 0.0302
- AEB2 [1]: 0.0257
- Ave AEB [1]: 0.028
- Signal to Background [1]: 1.12
- AEB1 [2]: 0.0237
- AEB2 [2]: 0.0272
- Ave AEB [2]: 0.0255
- Signal to Background [2]: 1.02
- AEB1 [3]: 0.0424
- AEB2 [3]: 0.0451
- Ave AEB [3]: 0.0437
- Signal to Background [3]: 3.9
- AEB1 [4]: 0.152
- AEB2 [4]: 0.157
- Ave AEB [4]: 0.154
- AEB1 [5]: 0.0162
- AEB2 [5]: 0.0168
- Ave AEB [5]: 0.0165
- AEB1 [6]: 0.0084
- AEB2 [6]: 0.0082
- Ave AEB [6]: 0.0083
- Signal to Background [6]: 0.972
- AEB1 [7]: 0.0276
- AEB2 [7]: 0.0233
- Ave AEB [7]: 0.0254
- Signal to Background [7]: 2.68
- AEB1 [8]: 0.0204
- AEB2 [8]: 0.0181
- Ave AEB [8]: 0.0192
- Signal to Background [8]: 2.25
- AEB1 [9]: 0.159
- AEB2 [9]: 0.154
- Ave AEB [9]: 0.156
- Signal to Background [9]: 16.5
- AEB1 [10]: 0.0113
- AEB2 [10]: 0.0141
- Ave AEB [10]: 0.0127
- Signal to Background [10]: 1.13
- AEB1 [11]: 0.174
- AEB2 [11]: 0.164
- Ave AEB [11]: 0.169
- Signal to Background [11]: 6.77
- AEB1 [12]: 0.0105
- AEB2 [12]: 0.0102
- Ave AEB [12]: 0.0104
- Signal to Background [12]: 1.09
- AEB1 [13]: 0.0142
- AEB2 [13]: 0.0119
- Ave AEB [13]: 0.013
- Signal to Background [13]: 1.38
- AEB2 [14]: 0.0774
- Ave AEB [14]: 0.0774
- Signal to Background [14]: 9.06
- AEB1 [15]: 0.404
- AEB2 [15]: 0.425
- Ave AEB [15]: 0.414
- Signal to Background [15]: 48.5
- AEB1 [16]: 0.724
- Ave AEB [16]: 0.724
- AEB1 [17]: 0.0206
- AEB2 [17]: 0.0228
- Ave AEB [17]: 0.0217
- Signal to Background [17]: 5.52
- AEB1 [18]: 0.0063
- AEB2 [18]: 0.0064
- Ave AEB [18]: 0.0063
- Signal to Background [18]: 1.62
- AEB1 [19]: 0.177
- AEB2 [19]: 0.188
- Ave AEB [19]: 0.183
- Signal to Background [19]: 46.6
- AEB1 [20]: 0.0169
- AEB2 [20]: 0.0141
- Ave AEB [20]: 0.0155
- Signal to Background [20]: 1.38
- AEB1 [21]: 0.0412
- AEB2 [21]: 0.0426
- Ave AEB [21]: 0.0419
- Signal to Background [21]: 1.68
- AEB1 [22]: 0.334
- AEB2 [22]: 0.338
- Ave AEB [22]: 0.336
- Signal to Background [22]: 30
Substance: anti-UBE3A antibody 3E5 (SAB1404508-100 ug, Millipore-Sigma)

- AEB1 [1]: 0.0531
- AEB2 [1]: 0.0522
- Ave AEB [1]: 0.0527
- Signal to Background [1]: 1.05
- AEB1 [2]: 0.0516
- AEB2 [2]: 0.0515
- Ave AEB [2]: 0.0516
- Signal to Background [2]: 1.03
- AEB1 [3]: 0.0418
- AEB2 [3]: 0.0409
- Ave AEB [3]: 0.0413
- Signal to Background [3]: 0.62
- AEB1 [4]: 0.0504
- AEB2 [4]: 0.053
- Ave AEB [4]: 0.0517
- Signal to Background [4]: 1.02
- AEB1 [5]: 0.0483
- AEB2 [5]: 0.0494
- Ave AEB [5]: 0.0489
- Signal to Background [5]: 0.97
- AEB1 [6]: 0.019
- AEB2 [6]: 0.021
- Ave AEB [6]: 0.02
- Signal to Background [6]: 0.94
- AEB1 [7]: 0.0264
- AEB2 [7]: 0.0248
- Ave AEB [7]: 0.0256
- Signal to Background [7]: 1.14
- AEB1 [8]: 0.0192
- AEB2 [8]: 0.0198
- Ave AEB [8]: 0.0195
- Signal to Background [8]: 0.91
- AEB1 [9]: 0.0258
- AEB2 [9]: 0.0245
- Ave AEB [9]: 0.0252
- Signal to Background [9]: 1.12
- AEB1 [10]: 0.0481
- AEB2 [10]: 0.0445
- Ave AEB [10]: 0.0463
- Signal to Background [10]: 0.69
- AEB1 [11]: 0.0616
- AEB2 [11]: 0.0585
- Ave AEB [11]: 0.0601
- Signal to Background [11]: 1.2
- AEB1 [12]: 0.0217
- AEB2 [12]: 0.0245
- Ave AEB [12]: 0.0231
- Signal to Background [12]: 1.03
- AEB1 [13]: 0.0223
- AEB2 [13]: 0.0228
- Ave AEB [13]: 0.0225
- Signal to Background [13]: 1
- AEB1 [14]: 0.0243
- AEB2 [14]: 0.0204
- Ave AEB [14]: 0.0224
- Signal to Background [14]: 1.05
- AEB1 [15]: 0.0337
- AEB2 [15]: 0.034
- Ave AEB [15]: 0.0339
- Signal to Background [15]: 1.59
- AEB1 [16]: 0.0957
- AEB2 [16]: 0.0942
- Ave AEB [16]: 0.095
- Signal to Background [16]: 1.88
- AEB1 [17]: 0.0178
- AEB2 [17]: 0.0198
- Ave AEB [17]: 0.0188
- Signal to Background [17]: 1.01
- AEB1 [18]: 0.017
- AEB2 [18]: 0.0184
- Ave AEB [18]: 0.0177
- Signal to Background [18]: 0.95
- AEB1 [19]: 0.0251
- AEB2 [19]: 0.0292
- Ave AEB [19]: 0.0271
- Signal to Background [19]: 1.45
- AEB1 [20]: 0.0426
- AEB2 [20]: 0.0425
- Ave AEB [20]: 0.0426
- Signal to Background [20]: 0.64
- AEB1 [23]: 0.161
- AEB2 [23]: 0.149
- Ave AEB [23]: 0.155
- Signal to Background [23]: 1.1
- AEB1 [21]: 0.0503
- AEB2 [21]: 0.0488
- Ave AEB [21]: 0.0496
- Signal to Background [21]: 0.99
- AEB1 [22]: 0.0412
- AEB2 [22]: 0.0418
- Ave AEB [22]: 0.0415
- Signal to Background [22]: 0.62
Substance: GTX101092 (GeneTex) (antibody)
